From US20200249231

What was measured:
[1] = target: T1, ARSKL (5-mer on peptide array)
T1 chain: ARSKL

[2] = target: T2, AYRQR (5-mer on peptide array)
T2 chain: AYRQR

[3] = target: T3, AYRTK (5-mer on peptide array)
T3 chain: AYRTK

[4] = target: T4, DWALQ (5-mer on peptide array)
T4 chain: DWALQ

[5] = target: T5, DWVAQ (5-mer on peptide array)
T5 chain: DWVAQ

[6] = target: T6, DWYLQ (5-mer on peptide array)
T6 chain: DWYLQ

[7] = target: T7, DYFLQ (5-mer on peptide array)
T7 chain: DYFLQ

[8] = target: T8, DYVAQ (5-mer on peptide array)
T8 chain: DYVAQ

[9] = target: T9, EYALQ (5-mer on peptide array)
T9 chain: EYALQ

[10] = target: T10, EYFLQ (5-mer on peptide array)
T10 chain: EYFLQ

[11] = target: T11, EYWLQ (5-mer on peptide array)
T11 chain: EYWLQ

[12] = target: T12, FRQRG (5-mer on peptide array)
T12 chain: FRQRG

[13] = target: T13, LRYRQ (5-mer on peptide array)
T13 chain: LRYRQ

[14] = target: T14, NYRFK (5-mer on peptide array)
T14 chain: NYRFK

[15] = target: T15, PRYRQ (5-mer on peptide array)
T15 chain: PRYRQ

[16] = target: T16, PYKYK (5-mer on peptide array)
T16 chain: PYKYK

[17] = target: T17, QRQRQ (5-mer on peptide array)
T17 chain: QRQRQ

[18] = target: T18, QYRQR (5-mer on peptide array)
T18 chain: QYRQR

[19] = target: T19, RFSQR (5-mer on peptide array)
T19 chain: RFSQR

[20] = target: T20, RQRQR (5-mer on peptide array)
T20 chain: RQRQR

[21] = target: T21, RWKFK (5-mer on peptide array)
T21 chain: RWKFK

[22] = target: T22, RYESK (5-mer on peptide array)
T22 chain: RYESK

[23] = target: T23, RYGKS (5-mer on peptide array)
T23 chain: RYGKS

[24] = target: T24, RYRQR (5-mer on peptide array)
T24 chain: RYRQR

[25] = target: T25, RYRSK (5-mer on peptide array)
T25 chain: RYRSK

[26] = target: T26, RYSKY (5-mer on peptide array)
T26 chain: RYSKY

[27] = target: T27, RYSQR (5-mer on peptide array)
T27 chain: RYSQR

[28] = target: T28, RYSYK (5-mer on peptide array)
T28 chain: RYSYK

[29] = target: T29, RYTQR (5-mer on peptide array)
T29 chain: RYTQR

[30] = target: T30, VRQRQ (5-mer on peptide array)
T30 chain: VRQRQ

[31] = target: T31, VRYRQ (5-mer on peptide array)
T31 chain: VRYRQ

[32] = target: T32, WQRQR (5-mer on peptide array)
T32 chain: WQRQR

[33] = target: T33, YKSFK (5-mer on peptide array)
T33 chain: YKSFK

[34] = target: T34, YKSWK (5-mer on peptide array)
T34 chain: YKSWK

[35] = target: T35, YKYKY (5-mer on peptide array)
T35 chain: YKYKY

[36] = target: T36, YKYRQ (5-mer on peptide array)
T36 chain: YKYRQ

[37] = target: T37, YQKWK (5-mer on peptide array)
T37 chain: YQKWK

[38] = target: T38, YQRQR (5-mer on peptide array)
T38 chain: YQRQR

[39] = target: T39, YRQTR (5-mer on peptide array)
T39 chain: YRQTR

[40] = target: T40, YRYAK (5-mer on peptide array)
T40 chain: YRYAK

Z-[GGGARSKLGGGG] = target: T41, Z-[GGGARSKLGGGG]
T41 chain: GGGARSKLGGGG

Z-[GGGAYRTKGGGG] = target: T42, Z-[GGGAYRTKGGGG]
T42 chain: GGGAYRTKGGGG

Z-[GGGFRQRGGGGG] = target: T43, Z-[GGGFRQRGGGGG]
T43 chain: GGGFRQRGGGGG

Z-[GGGMLAQGSGGG] = target: T44, Z-[GGGMLAQGSGGG]
T44 chain: GGGMLAQGSGGG

Z-[GGGQYRQRGGGG] = target: T45, Z-[GGGQYRQRGGGG]
T45 chain: GGGQYRQRGGGG

Z-[GGGRQRQRGGGG] = target: T46, Z-[GGGRQRQRGGGG]
T46 chain: GGGRQRQRGGGG

Z-[GGGRYESKGGGG] = target: T47, Z-[GGGRYESKGGGG]
T47 chain: GGGRYESKGGGG

Z-[GGGRYRQRGGGG] = target: T48, Z-[GGGRYRQRGGGG]
T48 chain: GGGRYRQRGGGG

Z-[GGGRYRSKGGGG] = target: T49, Z-[GGGRYRSKGGGG]
T49 chain: GGGRYRSKGGGG

Z-[GGGRYSKYGGGG] = target: T50, Z-[GGGRYSKYGGGG]
T50 chain: GGGRYSKYGGGG

Z-[GGGRYSQRGGGG] = target: T51, Z-[GGGRYSQRGGGG]
T51 chain: GGGRYSQRGGGG

Z-[GGGYKYRQGGGG] = target: T52, Z-[GGGYKYRQGGGG]
T52 chain: GGGYKYRQGGGG

Z-[GGGYRYRQGGGG] = target: T53, Z-[GGGYRYRQGGGG]
T53 chain: GGGYRYRQGGGG

B1: Kutzneria albida microbial transglutaminase, activated enzyme (KalbTGt3) (protein)
chain: APLAPPLAEDRSYRTWRVEDYVEAWERYHGREMTEDERENLARGCIGVTVVNLNREDLSNPPLNLSFGSLRTAEAVQAALNKIVDTHPSPAQYEAAVAKDPILKRLKNVVKALPSWIDSAKLKASIFSKRFYSWQNPDWSEERAHTTYRPDRETDQVDMSTYRYRARPGYVNFDYGWFDQDTNTWWHANHEEPRMVVYQSTLRHYSRPLQDFDEQVFTVAFAKKDGGGSGHHHHHHHH
[1]
  Array signal (log2): 12 log2
[2]
  5-mer peptide array, incorporation of biotinylated amine donor: the top 22 glutamine-donor substrates identified on the 5-mer peptide array with KalbTG
[3]
  Array signal (log2): 12.6 log2
[4]
  5-mer peptide array signal with KalbTG: exhibited relatively lower signal on the KalbTG array
[5]
  5-mer peptide array signal with KalbTG: exhibited relatively lower signal on the KalbTG array
[6]
  5-mer peptide array signal with KalbTG: exhibited relatively lower signal on the KalbTG array
[7]
  5-mer peptide array signal with KalbTG: exhibited relatively lower signal on the KalbTG array
[8]
  5-mer peptide array signal with KalbTG: exhibited relatively lower signal on the KalbTG array
[9]
  5-mer peptide array signal with KalbTG: exhibited relatively lower signal on the KalbTG array
[10]
  5-mer peptide array signal with KalbTG: exhibited relatively lower signal on the KalbTG array
[11]
  5-mer peptide array signal with KalbTG: exhibited relatively lower signal on the KalbTG array
[12]
  5-mer peptide array, incorporation of biotinylated amine donor: the top 22 glutamine-donor substrates identified on the 5-mer peptide array with KalbTG
  Array signal (log2): 8.82 log2
[13]
  5-mer peptide array, incorporation of biotinylated amine donor: the top 22 glutamine-donor substrates identified on the 5-mer peptide array with KalbTG
[14]
  5-mer peptide array, incorporation of biotinylated glutamine donor Z-APRYRQRAAGGG-PEG-biotin: the top 17 lysine-donor substrates identified on the 5-mer peptide array with KalbTG
[15]
  5-mer peptide array, incorporation of biotinylated amine donor: the top 22 glutamine-donor substrates identified on the 5-mer peptide array with KalbTG
[16]
  5-mer peptide array, incorporation of biotinylated glutamine donor Z-APRYRQRAAGGG-PEG-biotin: the top 17 lysine-donor substrates identified on the 5-mer peptide array with KalbTG
[17]
  5-mer peptide array, incorporation of biotinylated amine donor: the top 22 glutamine-donor substrates identified on the 5-mer peptide array with KalbTG
  Array signal (log2): 8.77 log2
[18]
  5-mer peptide array, incorporation of biotinylated amine donor: the top 22 glutamine-donor substrates identified on the 5-mer peptide array with KalbTG
  Array signal (log2): 8.7 log2
[19]
  5-mer peptide array, incorporation of biotinylated amine donor: the top 22 glutamine-donor substrates identified on the 5-mer peptide array with KalbTG
[20]
  5-mer peptide array, incorporation of biotinylated amine donor: the top 22 glutamine-donor substrates identified on the 5-mer peptide array with KalbTG
  Array signal (log2): 8.84 log2
[21]
  5-mer peptide array, incorporation of biotinylated glutamine donor Z-APRYRQRAAGGG-PEG-biotin: the top 17 lysine-donor substrates identified on the 5-mer peptide array with KalbTG
[22]
  5-mer peptide array, incorporation of biotinylated glutamine donor Z-APRYRQRAAGGG-PEG-biotin: the top 17 lysine-donor substrates identified on the 5-mer peptide array with KalbTG
  Array signal (log2): 12.7 log2
[23]
  Array signal (log2): 12.4 log2
[24]
  5-mer peptide array, incorporation of biotinylated amine donor: the top 22 glutamine-donor substrates identified on the 5-mer peptide array with KalbTG
  Array signal (log2): 8.96 log2
[25]
  Array signal (log2): 12.4 log2
[26]
  5-mer peptide array, incorporation of biotinylated glutamine donor Z-APRYRQRAAGGG-PEG-biotin: the top 17 lysine-donor substrates identified on the 5-mer peptide array with KalbTG
  Array signal (log2): 12.8 log2
[27]
  5-mer peptide array, incorporation of biotinylated amine donor: the top 22 glutamine-donor substrates identified on the 5-mer peptide array with KalbTG
  Array signal (log2): 8.93 log2
[28]
  5-mer peptide array, incorporation of biotinylated glutamine donor Z-APRYRQRAAGGG-PEG-biotin: the top 17 lysine-donor substrates identified on the 5-mer peptide array with KalbTG
[29]
  5-mer peptide array, incorporation of biotinylated amine donor: the top 22 glutamine-donor substrates identified on the 5-mer peptide array with KalbTG
[30]
  5-mer peptide array, incorporation of biotinylated amine donor: the top 22 glutamine-donor substrates identified on the 5-mer peptide array with KalbTG
[31]
  5-mer peptide array, incorporation of biotinylated amine donor: the top 22 glutamine-donor substrates identified on the 5-mer peptide array with KalbTG
[32]
  5-mer peptide array, incorporation of biotinylated amine donor: the top 22 glutamine-donor substrates identified on the 5-mer peptide array with KalbTG
[33]
  5-mer peptide array, incorporation of biotinylated glutamine donor Z-APRYRQRAAGGG-PEG-biotin: the top 17 lysine-donor substrates identified on the 5-mer peptide array with KalbTG
[34]
  5-mer peptide array, incorporation of biotinylated glutamine donor Z-APRYRQRAAGGG-PEG-biotin: the top 17 lysine-donor substrates identified on the 5-mer peptide array with KalbTG
[35]
  5-mer peptide array, incorporation of biotinylated glutamine donor Z-APRYRQRAAGGG-PEG-biotin: the top 17 lysine-donor substrates identified on the 5-mer peptide array with KalbTG
[36]
  5-mer peptide array, incorporation of biotinylated amine donor: the top 22 glutamine-donor substrates identified on the 5-mer peptide array with KalbTG
  Array signal (log2): 8.7 log2
[37]
  5-mer peptide array, incorporation of biotinylated glutamine donor Z-APRYRQRAAGGG-PEG-biotin: the top 17 lysine-donor substrates identified on the 5-mer peptide array with KalbTG
[38]
  5-mer peptide array, incorporation of biotinylated amine donor: the top 22 glutamine-donor substrates identified on the 5-mer peptide array with KalbTG
[39]
  5-mer peptide array, incorporation of biotinylated amine donor: the top 22 glutamine-donor substrates identified on the 5-mer peptide array with KalbTG
[40]
  5-mer peptide array, incorporation of biotinylated glutamine donor Z-APRYRQRAAGGG-PEG-biotin: the top 17 lysine-donor substrates identified on the 5-mer peptide array with KalbTG
Z-[GGGARSKLGGGG]
  Reaction Rate in Solution (pmol s^-1), GLDH-coupled assay with 200 µM glutamine donor: 3.87 pmol/s
Z-[GGGAYRTKGGGG]
  Reaction Rate in Solution (pmol s^-1), GLDH-coupled assay with 200 µM glutamine donor: 3.65 pmol/s
Z-[GGGFRQRGGGGG]
  Reaction rate in solution (pmol/s), GLDH-coupled assay: 2.11 pmol/s
Z-[GGGMLAQGSGGG]
  GLDH-coupled activity assay: KalbTG exhibited no activity with preferred S. mobaraensis MTG substrates DYALQ (SEQ ID NO: 22) and MLAQG (SEQ ID NO: 13)
  Reaction rate in solution (pmol/s), GLDH-coupled assay: -0.11 pmol/s
Z-[GGGQYRQRGGGG]
  Reaction rate in solution (pmol/s), GLDH-coupled assay: 1.92 pmol/s
Z-[GGGRQRQRGGGG]
  Reaction rate in solution (pmol/s), GLDH-coupled assay: 2.06 pmol/s
Z-[GGGRYESKGGGG]
  Reaction Rate in Solution (pmol s^-1), GLDH-coupled assay with 200 µM glutamine donor: 4.47 pmol/s
Z-[GGGRYRQRGGGG]
  Reaction rate in solution (pmol/s), GLDH-coupled assay: 3.6 pmol/s
Z-[GGGRYRSKGGGG]
  Reaction Rate in Solution (pmol s^-1), GLDH-coupled assay with 200 µM glutamine donor: 3.26 pmol/s
Z-[GGGRYSKYGGGG]
  Reaction Rate in Solution (pmol s^-1), GLDH-coupled assay with 200 µM glutamine donor: 3.89 pmol/s
Z-[GGGRYSQRGGGG]
  Reaction rate in solution (pmol/s), GLDH-coupled assay: 3.22 pmol/s
Z-[GGGYKYRQGGGG]
  Reaction rate in solution (pmol/s), GLDH-coupled assay: 4 pmol/s
Z-[GGGYRYRQGGGG]
  KM: 2150 µM
  Reaction rate in solution (pmol/s), GLDH-coupled assay: 3.52 pmol/s
  Vmax: 73.2 pmol/s
  kcat: 1.92 s⁻¹
  kcat/KM: 890 M⁻¹ s⁻¹
